Laboratory results: paper PMC10219423, “Characterization of a New Thermostable and Organic Solution-Tolerant Lipase from Pseudomonas fluorescens and Its Application in the Enrichment of Polyunsaturated Fatty Acids” (International Journal of Molecular Sciences, 2023)

System: CCCCCCCC(=O)Oc1ccc([N+](=O)[O-])cc1
Assay: purified protein
Assay type: biochemical, Pseudomonas fluorescens
Settings: Tris-HCl 50 mM, pH 8.0, 40 °C, ethanol and acetonitrile present, 0.01-2.0 mM substrate

## LipB (Pseudomonas fluorescens)
  Km: 810 µM
